# Reference: doi:10.1101/785121 (bioRxiv, 2020)
# Residue numbers refer to the chain shown, from its start. Names may count otherwise. “And” between values parts separate entries of the source, which are not always exact repeats. Equal values may be shown once. Read-outs that look alike come from different tables or passages of the source.
# B1: Rhodospirillum rubrum encapsulated ferritin, wild type (natural protein)
# chain: MAQSSNSTHEPLEVLKEETVNRHRAIVSVMEELEAVDWYDQRVDASTDPELTAILAHNRDEEKEHAAMTLEWLRRNDAKWAEHLRTYLFTEGPITAIEAADTAGEGSGGDAAKGATAQGDGSLGIGSLKGEAALARPPRL
# B2: Rhodospirillum rubrum encapsulated ferritin E31A variant (natural protein)
# chain: B1 chain with E31A
# B3: Rhodospirillum rubrum encapsulated ferritin W38A variant (natural protein)
# chain: B1 chain with W38A
# B4: Rhodospirillum rubrum encapsulated ferritin E34A variant (natural protein)
# chain: B1 chain with E34A
# B5: Rhodospirillum rubrum encapsulated ferritin W38G variant (natural protein)
# chain: B1 chain with W38G
# B6: Truncated, C-terminally hexahistidine-tagged R. rubrum encapsulated ferritin E31A variant (domain or fragment)
# chain: MAQSSNSTHEPLEVLKEETVNRHRAIVSVMAELEAVDWYDQRVDASTDPELTAILAHNRDEEKEHAAMTLEWLRRNDAKWAEHLRTYLFTEGPITA
# B7: Truncated, C-terminally hexahistidine-tagged R. rubrum encapsulated ferritin E34A variant (domain or fragment)
# chain: B6 chain with A31E, E34A
# Key:
# [1] = biological target: Isotopically depleted, truncated, strepII-tagged R. rubrum encapsulated ferritin (wild type) (Rhodospirillum rubrum); experiment: native MS
# [2] = biological target: Isotopically depleted, truncated, strepII-tagged R. rubrum encapsulated ferritin (wild type) (Rhodospirillum rubrum); experiment: native MS; remark: listed apart in the source
# [3] = biological target: Isotopically depleted, truncated, strepII-tagged R. rubrum encapsulated ferritin (wild type) (Rhodospirillum rubrum); experiment: native MS; remark: listed apart in the source
# [4] = biological target: Isotopically depleted, truncated, strepII-tagged R. rubrum encapsulated ferritin (wild type) (Rhodospirillum rubrum); experiment: native MS; remark: listed apart in the source
# [5] = biological target: Isotopically depleted, truncated, strepII-tagged R. rubrum encapsulated ferritin (wild type) (Rhodospirillum rubrum); experiment: native MS; remark: listed apart in the source
# [6] = biological target: Isotopically depleted, truncated, strepII-tagged R. rubrum encapsulated ferritin (wild type) (Rhodospirillum rubrum); experiment: native MS; remark: listed apart in the source
# [7] = biological target: the molecule itself; experiment: native MS
# [8] = biological target: T1, Rhodospirillum rubrum encapsulin (Rhodospirillum rubrum, UniProt Q2RVS0 1-280); experiment: SEC
# T1 sequence: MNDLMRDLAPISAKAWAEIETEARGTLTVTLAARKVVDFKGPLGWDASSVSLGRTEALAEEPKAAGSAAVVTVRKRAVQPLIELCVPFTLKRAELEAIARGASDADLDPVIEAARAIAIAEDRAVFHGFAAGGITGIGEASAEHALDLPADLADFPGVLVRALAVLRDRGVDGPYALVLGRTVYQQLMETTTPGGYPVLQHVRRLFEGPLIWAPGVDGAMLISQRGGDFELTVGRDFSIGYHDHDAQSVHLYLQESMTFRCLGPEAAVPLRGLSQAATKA
# [9] = biological target: the molecule itself; experiment: SEC
# [10] = biological target: the molecule itself; experiment: native MS; remark: listed apart in the source
# [11] = biological target: the molecule itself; experiment: crystal structure
molecule,measurement,setting,value
"Isotopically depleted, truncated, strepII-tagged R. rubrum encapsulated ferritin (wild type) (domain or fragment)",stoichiometry N,[1],10
same,stoichiometry N,[2],10
same,stoichiometry N,[3],4
same,stoichiometry N,[4],2
same,stoichiometry N,[5],2
same,stoichiometry N,[6],10
B1,stoichiometry N,[7],2
same,binding result,[8],binds
same,stoichiometry N,[9],10 and 4
B2,stoichiometry N,[10],10
same,binding result,[8],binds
same,stoichiometry N,[9],4 and 2
B3,binding result,[8],binds
B4,stoichiometry N,[10],10
same,binding result,[8],binds
same,stoichiometry N,[9],4 and 2
B5,binding result,[8],binds
B6,stoichiometry N,[11],10
B7,stoichiometry N,[11],10
